The Immune Epitope Database (IEDB)
pKd: −log10 of the molar value.

Tests used:
[1] = target: HLA-A*02:01; experiment: IEDB peptide-MHC binding, purified MHC/competitive/radioactivity; filed as Kd, often an IC50 or EC50 that approximates it; ≥ and ≤ were set here for values at or beyond the usual limits of such assays; conditions: source organism: Vaccinia virus WR
[2] = target: HLA-A*02:02; experiment: as above; conditions: source organism: Vaccinia virus WR
[3] = target: HLA-A*02:03; experiment: as above; conditions: source organism: Vaccinia virus WR
[4] = target: HLA-A*02:06; experiment: as above; conditions: source organism: Vaccinia virus WR
[5] = target: HLA-A*03:01; experiment: as above; conditions: source organism: Vaccinia virus WR
[6] = target: HLA-A*11:01; experiment: as above; conditions: source organism: Vaccinia virus WR
[7] = target: HLA-A*31:01; experiment: as above; conditions: source organism: Vaccinia virus WR
[8] = target: HLA-A*33:01; experiment: as above; conditions: source organism: Vaccinia virus WR
[9] = target: HLA-A*68:01; experiment: as above; conditions: source organism: Vaccinia virus WR
[10] = target: HLA-A*68:02; experiment: as above; conditions: source organism: Vaccinia virus WR
[11] = target: HLA-B*07:02; experiment: as above; conditions: source organism: Vaccinia virus WR
[12] = target: HLA-B*35:01; experiment: as above; conditions: source organism: Vaccinia virus WR
[13] = target: HLA-B*51:01; experiment: as above; conditions: source organism: Vaccinia virus WR
[14] = target: HLA-B*53:01; experiment: as above; conditions: source organism: Vaccinia virus WR
[15] = target: HLA-B*54:01; experiment: as above; conditions: source organism: Vaccinia virus WR
[16] = target: HLA-A*24:03; experiment: IEDB peptide-MHC binding, purified MHC/competitive/fluorescence; filed as Kd, often an IC50 or EC50 that approximates it; ≥ and ≤ were set here for values at or beyond the usual limits of such assays; conditions: source organism: Bacillus anthracis str. A0488
[17] = target: HLA-A*03:01; experiment: IEDB peptide-MHC binding, purified MHC/direct/fluorescence; filed as Kd, often an IC50 or EC50 that approximates it; ≥ and ≤ were set here for values at or beyond the usual limits of such assays
[18] = target: HLA-A*11:01; experiment: as above
[19] = target: HLA-A*31:01; experiment: IEDB peptide-MHC binding, purified MHC/competitive/fluorescence; filed as Kd, often an IC50 or EC50 that approximates it; ≥ and ≤ were set here for values at or beyond the usual limits of such assays
[20] = source organism: Yersinia enterocolitica

## KVFSFWLLCK
[1]
  pKd: 5.92
[2]
  pKd: 5.37
[3]
  pKd: 5.47
[4]
  pKd: 5.06
[5]
  pKd: 8.20
[6]
  pKd: 8.49
[7]
  pKd: 8.03
[8]
  pKd: 6.06
[9]
  pKd: 7.37
[10]
  pKd: ≤ 4.31
[11]
  pKd: ≤ 4.35
[12]
  pKd: ≤ 4.32
[13]
  pKd: 4.77
[14]
  pKd: 5.63
[15]
  pKd: 5.59

## QFMEGIYKL
[16]
  pKd: 8.39

## RAFKYPFIK
[17]; source organism: Fowlpox virus
  pKd: 8.17
[18]; source organism: Fowlpox virus
  pKd: 8.77
[19]; source organism: Fowlpox virus
  pKd: 7.22

## TFMIITSTK
[1]
  pKd: ≤ 4.11
[2]
  pKd: ≤ 4.20
[3]
  pKd: ≤ 4.51
[4]
  pKd: ≤ 4.11
[5]
  pKd: 6.39
[6]
  pKd: 6.72
[7]
  pKd: 6.44
[8]
  pKd: 6.21
[9]
  pKd: 6.98
[10]
  pKd: ≤ 4.11
[11]
  pKd: ≤ 4.11
[12]
  pKd: 4.71
[13]
  pKd: ≤ 4.11
[14]
  pKd: ≤ 4.11
[15]
  pKd: ≤ 4.37

## TVWNRLIAR
[17]; [20]
  pKd: 7.41
[18]; [20]
  pKd: 7.49
[19]; source organism: Yersinia pestis Antiqua
  pKd: ≥ 9.00
